Assay [1] concerns the target T1, Recombinant human DLL4-Fc (human, UniProt Q9NR61 27-522, limits assumed).
T1 construct: also called hDLL4; hDLL4-Fc; not shown: Fc portion
In words: SPR (Biacore 2000), human DLL4-Fc on CM5 chip; ratio of KDs against 219R45-MB-21M18. How it is done:
(§1) The KDs of parental antibodies anti-VEGF 219R45 (IgG format), anti-DLL4 21R79 (IgG format), anti-DLL4 21M18 (IgG format) and bispecific antibodies 219R45-MB-21M18 and 219R45-MB-21R79 were determined using a Biacore 2000 system from Biacore LifeSciences (GE Healthcare). Recombinant human DLL4-Fc or mouse DLL4-Fc proteins were immobilized on CM5 carboxyl chips using standard amine-based chemistry (NHS/EDC) and blocked with ethanolamine Recombinant human VEGF₁₆₅ or mouse VEGF₁₆₅ were biotinylated and immobilized on streptavidin chips. The antibodies were serially diluted 2-fold from 100 nM to 0.78 nM in HBS-P (0.01M HEPES pH7.4, 0.15M NaCl, 0.005% v/v Polysorbate 20). For each antibody, all 8 dilutions were sequentially injected over a specific chip. Kinetic data were collected over time and were fit using the simultaneous global fit equation to yield affinity constants (KD values) for each bispecific antibody.

Assay [2] has as its target T1, Recombinant human DLL4-Fc. The assay is described as follows: SPR (Biacore 2000), human DLL4-Fc amine-coupled on CM5 chip, antibody as analyte. How it is done: as §1
A general note: SPR reads the build-up and loss of mass on a sensor chip optically.

Assay [3] has as its target T1, Recombinant human DLL4-Fc. The description is as above. How it is done: as §1
Several additional anti-DLL4 antibodies were identified that had binding affinities intermediate to the KDs of 21M18 and 21R79. Two of these anti-DLL4 antibodies were used to produce anti-VEGF/anti-DLL4 bispecific antibodies 219R45-MB-21R75 and 219R45-MB-21R83. Using the Biacore 2000 system as described above, the KDs of the bispecific antibodies 219R45-MB-21R75 and 219R45-MB-21R83 to human DLL4 were determined.
The source holds these as a separate data set.

The target of assay [4] is T2, Recombinant human VEGF165 (human, UniProt P15692-4 27-191).
T2 construct: also called hVEGF; hVEGF165
The assay is described as follows: SPR (Biacore 2000), biotinylated human VEGF165 on streptavidin chip, antibody as analyte. How it is done: as §1

Assay [5] concerns the target T3, Recombinant mouse VEGF165 (mouse, UniProt Q00731-2 27-190).
T3 construct: also called mVEGF
T3 sequence (looked up): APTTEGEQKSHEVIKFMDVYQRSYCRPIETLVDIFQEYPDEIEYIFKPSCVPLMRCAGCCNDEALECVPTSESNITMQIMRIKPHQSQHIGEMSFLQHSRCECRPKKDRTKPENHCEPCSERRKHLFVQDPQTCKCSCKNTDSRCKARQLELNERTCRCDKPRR
The assay is described as follows: SPR (Biacore 2000), biotinylated mouse VEGF165 on streptavidin chip, antibody as analyte. How it is done:
as §1

Assay [6] addresses T4, biotin-DLL4-hFc (UniProt Q9NR61 27-522, limits assumed, biotinylated (site not stated)).
T4 construct: not shown: human Fc (hFc)
The assay is described as follows: Bispecific bridging ELISA (VEGF-coated plate, biotin-DLL4-hFc detection); ratio against 219R45-MB-21M18. How it is done: (§2) VEGF (ATGEN, South Korea) was coated onto Nunc maxisorb plates at 2 ug/ml (100 μl/well) and incubated overnight at 2-8° C. Bispecific antibodies 219R45-MB-21M18, 219R45-MB-21R79, 219R45-MB-21R75, and 219R45-MB-21R83 were diluted in blocking buffer (lx PBS, 0.1% gelatin, 0.1% Polysorbate-20, pH 7.4) containing 2 μg/ml biotin-DLL4-hFc. The antibodies were serially diluted 3-fold from 500 ng/ml to 0.008 ng/ml. The antibody samples were incubated for 2 hours in blocking buffer containing the biotin-DLL4-hFc. After incubation, the antibody samples were transferred to the VEGF-coated assay plate (100 ul/well) and incubated for 2 hours. Streptavidin-HRP (Jackson ImmunoResearch, West Grove, Pa.) was added to each well and incubated for 1 hr. TMB substrate was added to the wells with a 10 minute color development and the reaction was stopped with 2M sulfuric acid. Absorbance was read at 450-650 nm and the data analyzed using the 4-parameter fit within the Softmax Pro analysis program (Molecular Devices, Sunnyvale, Calif.).
On the technique in general: An ELISA detects its analyte on a solid surface through an enzyme-linked reagent.

For assay [7], the target named is T4, biotin-DLL4-hFc. In words: bispecific sandwich ELISA: antibody pre-incubated with 2 ug/ml biotin-DLL4-hFc, captured on VEGF-coated plate, detected with streptavidin-HRP. How it is done: FIG. 7. Bispecific antibody ELISA. Bispecific antibodies 219R45-MB-21M18, 219R45-MB-21R79, 219R45-MB-21R75, and 219R45-MB-21R83 were diluted in blocking buffer (lx PBS, 0.1% gelatin, 0.1% Polysorbate-20, pH 7.4) containing 2 μg/ml biotin-DLL4-hFc. The antibodies were serially diluted 3-fold from 500 ng/ml to 0.008 ng/ml. The antibody samples were incubated for 2 hours in blocking buffer containing the biotin-DLL4-hFc. After incubation, the antibody samples were transferred to a VEGF-coated assay plate (100 ul/well) and incubated for 2 hours. Streptavidin-HRP was added to each well and incubated for 1 hr. TMB substrate was added to the wells with a 10 minute color development and the reaction was stopped with 2M sulfuric acid. Absorbance was read at 450-650 nm and the data analyzed using the 4-parameter fit within the Softmax Pro analysis program.
as §2

The target of assay [8] is T4, biotin-DLL4-hFc. In words: Bispecific bridging ELISA: antibody pre-incubated with biotin-DLL4-hFc, captured on VEGF (ATGEN)-coated plate, streptavidin-HRP; potency relative to a reference anti-VEGF/anti-DLL4 bispecific antibody. How it is done:
as §2

Like-named read-outs stand apart in the source and are kept apart here.

The values below come from patent US20180305449A1 (ONCOMED PHARMACEUTICALS, published 2018).

T1 sequence (Q9NR61 27-522 limits assumed): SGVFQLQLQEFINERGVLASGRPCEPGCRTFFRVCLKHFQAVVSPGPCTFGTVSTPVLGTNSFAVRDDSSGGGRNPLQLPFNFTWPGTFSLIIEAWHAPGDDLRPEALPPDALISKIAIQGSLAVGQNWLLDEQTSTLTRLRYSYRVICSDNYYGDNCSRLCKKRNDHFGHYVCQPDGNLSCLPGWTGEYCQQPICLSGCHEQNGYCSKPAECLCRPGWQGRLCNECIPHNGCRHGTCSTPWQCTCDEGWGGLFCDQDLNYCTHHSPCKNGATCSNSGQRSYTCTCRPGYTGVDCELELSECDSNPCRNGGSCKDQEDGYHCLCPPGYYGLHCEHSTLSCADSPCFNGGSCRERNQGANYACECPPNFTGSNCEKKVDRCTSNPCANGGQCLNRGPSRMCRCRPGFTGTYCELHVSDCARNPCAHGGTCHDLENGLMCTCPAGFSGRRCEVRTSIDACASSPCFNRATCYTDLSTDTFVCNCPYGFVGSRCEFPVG
T4 sequence (Q9NR61 27-522 limits assumed): as above

B1: anti-VEGF/anti-DLL4 bispecific antibody 219R45-MB-21R79 (bispecific antibody, human IgG2)
heavy 1: QVQLVQSGAEVKKPGASVKVSCKASGYTFTNYWMHWVRQAPGQGLEWMGDINPSNGRTSYKEKFKRRVTLSVDKSSSTAYMELSSLRSEDTAVYFCTIHYDDKYYPLMDYWGQGTLVTVSSASTKGPSVFPLAPCSRSTSESTAALGCLVKDYFPEPVTVSWNSGALTSGVHTFPAVLQSSGLYSLSSVVTVPSSNFGTQTYTCNVDHKPSNTKVDKTVERKCCVECPPCPAPPVAGPSVFLFPPKPKDTLMISRTPEVTCVVVDVSHEDPEVQFNWYVDGVEVHNAKTKPREEQFNSTFRVVSVLTVVHQDWLNGKEYKCKVSNKGLPAPIEKTISKTKGQPREPQVYTLPPSREKMTKNQVSLTCLVKGFYPSDIAVEWESNGQPENNYKTTPPMLKSDGSFFLYSKLTVDKSRWQQGNVFSCSVMHEALHNHYTQKSLSLSPGK
heavy 2: QVQLVQSGAEVKKPGASVKISCKASGYSFTAYYIHWVKQAPGQGLEWIGYIANYNRATNYNQKFKGRVTFTTDTSTSTAYMELRSLRSDDTAVYYCARDYDYDVGMDYWGQGTLVTVSSASTKGPSVFPLAPCSRSTSESTAALGCLVKDYFPEPVTVSWNSGALTSGVHTFPAVLQSSGLYSLSSVVTVPSSNFGTQTYTCNVDHKPSNTKVDKTVERKCCVECPPCPAPPVAGPSVFLFPPKPKDTLMISRTPEVTCVVVDVSHEDPEVQFNWYVDGVEVHNAKTKPREEQFNSTFRVVSVLTVVHQDWLNGKEYKCKVSNKGLPAPIEKTISKTKGQPREPQVYTLPPSREEMTKNQVSLTCLVEGFYPSDIAVEWESNGQPENNYKTTPPMLDSDGSFFLYSELTVDKSRWQQGNVFSCSVMHEALHNHYTQKSLSLSPGK
light: DIVMTQSPDSLAVSLGERATISCRASESVDNYGISFMKWFQQKPGQPPKLLIYAASNQGSGVPDRFSGSGSGTDFTLTISSLQAEDVAVYYCQQSKEVPWTFGGGTKVEIKRTVAAPSVIFPPSDEQLKSGTASVVCLLNNFYPREAKVQWKVDNALQSGNSQESVTEQDSKDSTYSLSSTLTLSKADYEKHKVYACEVTHQGLSSPVTKSFNRGEC
notes: Monovalent/bispecific IgG2 heterodimer with charge-modified CH3 domains and two identical light chains
For the molecule B1, in assay [1], the “fold stronger binding than 219R45-MB-21M18” value was around 30 fold. Also, the Kd in assay [2] amounted to 530 pM; in assay [3] it was 530 pM; in assay [4], 680 pM; in assay [5], 12500 pM. Besides, the “fold more potent than 219R45-MB-21M18” value in the assay with biotin-DLL4-hFc [6] is around 7 fold. Besides, the “EC50 (read off the curve)” value with biotin-DLL4-hFc [7] is around 0.6 ng/mL. Also, the “Relative Potency (%)” value with biotin-DLL4-hFc [8] amounted to 501%.

The Kd is the free concentration of one partner at which half of the binding sites on the other are occupied at equilibrium, for simple one-to-one binding. As usually defined, the EC50 (read off the curve) is the midpoint of the concentration-response curve.
